Laboratory results: patent US20230080534A1 (SHANGHAI BIOTROY BIOTECHNIQUE, published 2023)
No end group written: not given here.

T1: BSA-conjugated human SEMG2 (497-509) polypeptide (human, also: coupled to BSA, site not given here)
T1 peptide: QIEKLVEGKSQIQ

T2: human SEMG2 full-length protein (human, UniProt Q02383 24-582, limits assumed)
T2 construct: also called SEMG2 protein; semenogelin 2
T2 sequence: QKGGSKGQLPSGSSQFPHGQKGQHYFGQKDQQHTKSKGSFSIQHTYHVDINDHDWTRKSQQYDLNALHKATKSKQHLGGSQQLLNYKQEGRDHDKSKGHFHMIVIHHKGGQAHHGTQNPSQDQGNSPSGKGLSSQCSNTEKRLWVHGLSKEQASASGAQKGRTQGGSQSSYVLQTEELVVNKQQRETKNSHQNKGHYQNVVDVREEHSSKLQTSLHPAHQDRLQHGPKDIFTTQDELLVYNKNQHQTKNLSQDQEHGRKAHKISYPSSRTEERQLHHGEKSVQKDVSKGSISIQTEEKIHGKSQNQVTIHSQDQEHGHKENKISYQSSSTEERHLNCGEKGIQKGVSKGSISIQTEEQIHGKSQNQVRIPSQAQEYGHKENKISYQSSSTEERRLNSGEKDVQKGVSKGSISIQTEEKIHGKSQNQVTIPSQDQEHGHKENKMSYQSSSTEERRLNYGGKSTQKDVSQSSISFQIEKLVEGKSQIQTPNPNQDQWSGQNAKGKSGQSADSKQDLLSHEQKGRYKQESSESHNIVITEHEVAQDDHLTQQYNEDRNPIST


Assays:
[1] = target: T1, BSA-conjugated human SEMG2 (497-509) …; test: ELISA (FIG. 21B-D)
[2] = target: T2, human SEMG2 full-length protein; test: ELISA (FIG. 21B-D)
[3] = target: T2, human SEMG2 full-length protein; test: ELISA on SEMG2; the EC50 table prints no unit, the axis is log (antibody concentration, nM)

fold higher affinity than the parent antibody (H88-67) [1]	fold higher affinity than the parent antibody (H88-67) [2]	EC50 [3]	Binder
> 10 fold	> 10 fold	0.614 nM	67-3-67-3 (antibody, V domains shown) VH: QVQLLESGGGVVQPGRSLRLSCAASGFTFSSYAMHWVRQASGKGLEWVAVISYDGSNKYYADSVKGRFTISRDNSKNTLYLQMNSLRAEDTAVYYCARMDNHGSPDYWGQGTLVTVSS VL: not shown
> 10 fold	> 10 fold	0.537 nM	67-3-67-4 (antibody, V domains shown) VH: QVQLLESGGGVVQPGRSLRLSCAASGFTFSSYAMHWVRQASGKGLEWVAVISYDGSNKYYADSVKGRFTISRDNSKNTLYLQMNSLRAEDTAVYYCARMDNHGSPDYWGQGTLVTVSS VL: not shown
> 10 fold	> 10 fold	0.68 nM	67-3-67-5 (antibody, V domains shown) VH: QVQLLESGGGVVQPGRSLRLSCAASGFTFSSYAMHWVRQASGKGLEWVAVISYDGSNKYYADSVKGRFTISRDNSKNTLYLQMNSLRAEDTAVYYCARMDNHGSPDYWGQGTLVTVSS VL: not shown
> 10 fold	> 10 fold	0.272 nM	67-9-67-3 (antibody, V domains shown) VH: QVQLLESGGGVVQPGRSLRLSCAASGFTFSSYAMHWVRQASGKGLEWVAVISYDGSNKYYADSVKGRFTISRDNSKNTLYLQMNSLRAEDTAVYYCARMDSGGSPDYWGQGTLVTVSS VL: not shown
